# Reference: the nanobody polyreactivity screen of Harvey et al. (2022)
# Experiment: yeast display, Sf9 membrane polyspecificity reagent, FACS + sequencing; frameworks hold sequencing errors
# Summary of the method: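 Polyreactivity labels are assigned by the sorting gate from which each nanobody was recovered. The gates were low and high (top ~1%), set on anti-HA fluorescence for expression and streptavidin fluorescence for reagent binding. Before sorting, galactose-induced (36–48 hours) yeast display cells were stained for 1 hour at 4 °C with 10% biotinylated, detergent-solubilized Sf9 membrane reagent.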
row,Sequence,polyreactivity (PSR sort gate)
1,QVQLVESGGGLVQAGGSLRLSCAASGYIFHLYGMGWYRQAPGKERELVARISYRGGSTYYADSVKGRFTISRDNAMKTVYLQRNSLKPEETAVYYCAAYRRQHIIYNYWGQGTQVSVSS,high polyreactivity
2,QVQLVESGGGLVQAGGSLRLSCAATGFTFSYYALGWYRQAPGKERELVAVISDRGGITYYADSVKGRFTISRDNAKNTVYLQMNSLKPEDTADYYCAAQNPRYNYRYYYWGHGTQVTVSS,low polyreactivity
3,QVQLVESVGCLVQARGSLRLSCAASGFTFPHYAMGWYRQAPGKERELVAVISWSGSSTYYADSVKGRFTISRDNAKNTVYLKMNSLKPVVNAVYYCNTRKLYQVDYDYWGQGSQVTVSS,high polyreactivity
4,QVQLVESGGGLVQAGGSLRLSCAASGLTLYKNGMGWYRQAPGKERELVAVISRSGGRTYYADSVKGRFTISRDNAKNTVYLQMNSLKPEDTAVYYCAAAWYSSSRYQGIYRFDYWGQGTQVTVSS,high polyreactivity
5,QVQLVESGGGLVQAGGSLRLSCAASGNIFRANPMGWYRQAPGKERELVASITVSGGSTNYADSVKGRFTISRDNAKNTVYLQMNSLKPEDTAVYYCAKTLTRSVKFSTVLLGPTPDYYWGQGTQVTVSS,high polyreactivity
6,QVQLVESGGGLVQAGGSLRLSCAASGSIFVYNAMGWYRQAPGKERELVARITGRGGRTYYADSVKGRFTISRDNAKNTVYLQMNSLKPEDTAVYYCAAAKYGDYRGSPYKYGYWGQGTQVTVSS,high polyreactivity
7,QVQLQESGGGLVKAGGTPRLSCAASYNIFPDSVMCWYRQAPGTERELVATIGFVATTNYADSVKGRFTISRDNAKNTLYLQMNSLNPEDTAVYYCAAVPLNYEYFCYWGEGTQVTVSS,low polyreactivity
8,QVQLVESGGGLVQAGGSLRLSCAASGSIFGRNAMGWYRQAPGKERELVAGMFYADSEKGRFTISRDNAKNTVYLQMNSLKPEDTAVYYCNADGTTDISNDNWYGYWGQGTQVTVSS,low polyreactivity
9,QVQLVESGGGLVQAGGSLRLSCAASGSIFWWNAMGWYRQAPGKERELVAGITKIGSSTYYADSVKGRFTISRDNAKNTVYLQMNSLKPEDTAVYYCNAYGPNIYSSRYDYWGQGTQVTVSS,low polyreactivity
10,QVQLVESGGGLVQAGGSLRLSCAASGRTFYRYAMGWYRQAPGKERELVAAITWSGGSTYYADSVKGRFTTSRDNAKNTVYLQMNSLKPEDTAVYYCAADAALITYYGWADMYYWGQGTQVTVSS,low polyreactivity
11,QVQLVESGGGLDQAGGSLRLSCAASGRISIRNAMGWYRQAPGKETELVAAISRSGGSTYYADSLKGRFTISRDNAKNTVYLQMNSLKPEDTAVYYCAARGYSTYPMDYWGQGTQVTVSS,high polyreactivity
12,QVQLVESGGGLVQAGGSLRLSCAASGFTFRVDAMGWYRQAPGKERELVAAISVRGDSTYYADSVKGRFTISRDNAKNTVYVQMNSLKPEDTAVYYSAAAVRTISRFTFYYWGQGTQVTVSS,high polyreactivity
13,QVQLVESGGGLVQAGGSLRLSCAASGSTFLYYAMGWYTQAPGKERELVAAITVRGGNTYYADSVKGRFTISRDNAKNTVYLQMNSLKPEDTAVYYCAARAYYSFRYDYWGQGTQVTVSS,high polyreactivity
14,QVQLEESGGGIVQAGGSLRLSCAASGSNYASNAMGWYRQAPRKERELVAAINSGDSTNYADSVKGRFTISRDNGKNTVYLQMNSLKTEDTAVYYCSRGLEERYDYWGQGTQVTVSS,low polyreactivity
15,QVQLVESGGGLVQAGGSLRLSCAASGSIFGPYAMGWYRQAPGKERELVAAISTRGGRTYYADSVKGRFTISRDNAKNTVYLQMISLKPEDTAVYYCNDRRSDSRSYDYWGQGTQVTVSS,high polyreactivity
16,QVQLVESGGGLVQAGGSLRLSCAASGSIFYGNAMGWYRQAPGKERELVAAISKRGGSTYYADSVKGRFTISRDNAKNTVYLQMNSLIPEDTAVYYCDKGSAGHTEYYYWGQGTQVTVSS,high polyreactivity
17,QVQLVESGGGLVQAGGSLRLSCAASGGILDTYAMGWYRQAPGKERELVAAITSGGNTNYADSVKGRFTISRDNAKNTVYLQMNSLKPEDSAVYYCNVVTWYYVFRPWEYEYWGQGTQVTVSS,low polyreactivity
18,QVQLVESRGCLVQAGGSLRLSCAASGSISIKNAMGWYRQAPGKERELVATITYNGGSTYYADSVKGRFTISRDNAKNTVYLQMNSLKPEDTAVYYCARDAFEPYDVGEYYYWGQGTQVTVSS,low polyreactivity
19,QVQLVESGGGIVQAGGSLRLISAASGIIIDYYAMGWYRQAPGKERELVAAITSGGSTSYADSVKGRFTISRDNAKNTVYLQMNSLKAEDTAVYYCNTEPSGYESGYWGQGTLVTVSS,low polyreactivity
20,QVQLVESGGGLVQAGGSLRLSCAASGRTFRLYAMGWYRQATGTETELVAAISSRGGSTYYADSVKGRFTISRDNAKNTVYLQMNSLKPEDTAVYYCAKGLGSGQEIYGYDYWGQGTQVTVSS,high polyreactivity
21,QVQLVESGGGLVQAGGSLRLSCAASVSTIGYYAMGWYRQAPGKEWELVAAITWSGDSTYADSVKGRFTISRDNAKNTVYLQMNRLKPEDTAVYYCARRGFLGHWPRPSYDYWGQGTQVTVSS,low polyreactivity
22,QVQLVESGGGLVQAGGSLRLSCAASGSIFYLNAMGWYRQAPGKERELDAAIRWSGGSTRYADSVKGRFTISRDNAKNTVYLQMNSLKPEDTAVYYCAKYNPVLVYHWWYYYWGQGTQVTVSS,high polyreactivity

row,Sequence,polyreactivity (PSR sort gate)
1,QVQLVESGGGLVQAGGSLRLSCAASGRTFSYNAMGWYRQAPGKERELVAAINGDGGSTYYADSVKGRFTISRDNAKNTVYLQMNSLKPEDTAVYYCNRPRIYRYGYWGQGTQVTVSS,high polyreactivity
2,QVQLVESGGGLVQAGGSLRLSCAASGRTFVRNAMGWYRQAPGKERELVAAINSGGSTNYADSLKGRFTISRDNPKNTVYLQMNSLKPEDTAVYYCNAPRQHVGNGNYWGQGTQVTVSS,low polyreactivity
3,QVQLVESGGGLVQAGGSLRLSCAASGSIFPVYTMGWYRQAPGKEREFVATITISGAITYYADSVKGRFTISRDNAKNSVYLQMNSLKPEDTAVYYCNTGPISYPANDYWGQGTQVTVSS,low polyreactivity
4,QVQLVESGGGLVQAGGSLRLSCAASGLIFRAYAMGWYRQAPGKERELVAAISRNGGSTYYADSVKGRFTISRDNAKTTVYLQMNSLKPEDTAVYYCNKVSRSSVYLDYYYWGQGTQVTVSS,high polyreactivity
5,QVQLVESGGGLVQAGGSLRLSCAASGIIFFNNVMGWYRQAPGKERVLVAGITYTGGSTYYADSVKGRFTISRDNAKNTVYLHMNSLKPEDTAVYNCNKDYANTRRVTEYDYWGQGTQVTVSS,low polyreactivity
6,QVQLVESGGGLVQAGGSLRLSCAASGSIFAWYVMGWYRQAPGKERELVAGIDTSGGSTFYADSVKGRFTISRDNAKNTVYLQMNSLKPEDTAVYYCAADTWFRGPWEFDYWGQGTQVTVSS,low polyreactivity
7,QVQLVESGGGLVQAGGSLRLICAASGRTFGIYAMGWYSPAPGKERELVATISWRGGSTYYADSVKGRFTISRDNAKNSVYLQMNSLKPEDTGVYYCAAGYYPYWGQGTQVTVSS,low polyreactivity
8,QVQLVESGGGLVQAGGSLRLSCAASGRTFPLYGMGWYRQAPGKERELVATISRSGGSTYYADSVKGRFTISRDNAKNTVYLQMNSLKPEDTAVYYCIADRHYVPYYSRPRYIPYDYWGQGTQVTVSS,high polyreactivity
9,QVQLVESGGGLVQAGGSLRLSCAASGFTFGVYAMGWYRQAPGKERELVAAITWGDGSTYYADSVKGRFTISRDNAKNTVYLQMYSLKPEDTAVYYCIAVTRRHIYYYWGQGTQVTVSS,high polyreactivity
10,QVQLLESGGGLVQAGRSLRLSCAASGNTFDEYVKGWYRQAPGKESELDASIDWSGGGTYYADSVKGRFTISRDNAKNTVYLQMNSLKPEDTAVFYCNADYFDYSRTRYDYWGQGTQVNVSS,low polyreactivity
11,QDQLVESGGGLVQAGGSLRLSCAASGRIFTGNVMGWYRQAPGKERELVAAITYRGGSTYYADSVKGRFTISRDNAKNTVFLQMNSLKPEDTAVYYCNTGWDPYGYDYWGQGTQVTVSS,low polyreactivity
12,QVQLVESGGGLVQAGGSLRLSCAASGSIFSTYAMGWYRQAPGKERELVAAISRSGGSTYYADSVKGRFTISRDNAKNTVFLQMNSLKPEDTAVYYCAKVGRRQRYDYWGQGTQVTVSS,high polyreactivity
13,QVQLEESGGGLVQAGGSLRLSCAASGRIFNENAMGWYRQAPGKERELVAAITQSGGSTYYADSVKGRFTISRDNAKNTVYLQMNSLKPEDTAVYYCAAGDAYYTEALPFGEYDYWGQGTQVTVSS,low polyreactivity
14,QVQLVESGGGLVQAGGSLRLSCAASGSTFSGYTMGWYRQAPGKERELVASISSGVSTYYADSVKGRFTISRDNAKNTVYLQMNSLKPEDTAVYYCAADSVGDYGYQVYASWGYEDEYWGQGTQVTVSS,low polyreactivity
15,QVQLVESGGGLVQAGGSLRLSCAASGSTLYGYAMGWYRQAPGKVRELVAAISSRAVRTYYADSVKGRFTISRDNAKNTVYLHMNSLKPEDTAVYYCAAKRSYAYEYWGQGTQVTVSS,high polyreactivity
16,QVQLEESGGGLVQAGGSLRLSCAASGSIIYENTMGWYRQAPGKERELVAAISASGGSTEYADSVKGRFTISRDNEKNTVYLQMKSLKPEDTGVYYCAADACAFYFGGDYWGLGTQVTVSS,low polyreactivity
17,QVQLVESGGGLVQAGGSLRLSCAASGSIFQQYDRGWYRQAPGKDREFVAAISSSGGSTYYADSVKGRFTISRDNAKNTDYLQMKSLKAEDSAVYYCAVDTIGYTYVDYLHGSGEFGYWGQGTQVTVSS,low polyreactivity
18,QVQLVESGGGLDQAGGSLRLSCAASGRIFGFYAMGWYRQAPGKERELVAAITINTGSTSYADSVKGRFTISRDNAKNTVYFQMNSLKPEDTAVYYCATDAAAPKYDYWGQGTQVTVSS,low polyreactivity
19,QVQLVESGGGLVQAGGSLRLSCAASGYTFIGYAMGWYRQAPGKERELVAAISWSVGRTYYADSVKGRFTISRDNAKNTVYLQMNSLKPEDTAVYYCNAVSSFYYCYDYWGQVTQVTVSS,low polyreactivity
20,QVKLVDSGGGLVQAGGSLRLSCAASGNIFYRYAMGWYRQAPGKERELVAAISGNSGNTYYADSVKGRFTISRDNAKNTVYLQMNSLKPDDTAVYYCAAERRAFGHYSWGQGTQVTVSS,high polyreactivity
21,QVQLVESGGGLVQAGGSLRLSCAASGSTFSKNAMGWYRQAPGKERELVASISSSGGSTYYADSVKGRFTISRDNAKNTVYLQMNSLKPEDTAVYYCNRRWYARGEYWGQGTQVTVSS,high polyreactivity
